This sample holds only a part of the variants without activity.
B1: TPR 5TU (parent)
chain: GGAUCUUCUCGAUCUAACAAAAAAGACAAAUCUGCCACAAAGCUUGAGAGCAUCUUCGGAUGCAGAGGCGGCAGCCUUCGGUGGCGCGAUAGCGCCAACGUUCUCAACUAUGACACGCAAAACGCGUGCUCCGUUGAAUGGAGUUUAUCAUG

Variants of: B1
Assay: polymerase ribozyme fitness, log enrichment relative to wild type (log ratio); higher = more active; in vitro selection for triplet polymerase activity
Method in brief: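 Fitness measures genotype enrichment against wild-type enrichment on a logarithmic scale, with inverse-variance-weighted averaging of replicates. The logarithm is base 2, and genotypes were kept only with ≥10 input reads and ≥1 read per output in Illumina sequencing. The sequenced libraries came from one triplicate in vitro selection round, including frozen incubation at −7 °C, of PCR-built, transcribed mutant libraries of each subunit of a heterodimeric triplet polymerase ribozyme.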

Row | Variant | polymerase ribozyme fitness (log ratio)
1 | C18G A26U G86C A150U | -3.07
2 | A19C A21U A40C A60C C96G A110G G136U | ≤ -4.2
3 | A19G G67C G124U | ≤ -4.2
4 | C18G A49C G67U G84U A107U | ≤ -4.2
5 | A19C C129G U148G | ≤ -4.2
6 | A19C U45A G59U U148A C149G | ≤ -4.2
7 | C18U C54A A64G G83C A119U A147C | ≤ -4.2
8 | C18U A40C C57A G126U | -0.291
9 | A19C U55A C123G C125A U148G | ≤ -4.2
10 | C18G C72U G86U G88C A150G | ≤ -4.2
11 | A19C C79U A98U | -1.81
12 | C18G A37G A66G G68C C93A G128A | ≤ -4.2
13 | A19C C35U C95U | 0.438
14 | A19C C54U | -0.474
15 | C18U A37U U144A | -1.92
16 | C18U U55G C75U G92C | -1.73
17 | A19G C32A A40C U61A C93G A110G | ≤ -4.2
18 | A19G C85A | -2.09
19 | A19G A23U C57G G84U C93G G94C A122U A142C | ≤ -4.2
20 | A19G G50A | -2.14
21 | A19G U55A | -0.576
22 | C18G A113G U134A | -3.95
23 | C18U A41C C72U C93G U104G | ≤ -4.2
24 | C18U C93U | -1.73

Row | Variant | polymerase ribozyme fitness (log ratio)
25 | C18U C93G | -3.19
26 | A19G A26C U55G G83U U151C | ≤ -4.2
27 | A19G G94A | -1.06
28 | A19G C85U G94U G141U | 0.14
29 | A19U A20G A66G G80A C87A A107G A110C | ≤ -4.2
30 | A19C G58C C87A C95A A98G | ≤ -4.2
31 | A19G U55A G68A G71A C103U | ≤ -4.2
32 | A19G G83A A91C G94C C96G U134G | ≤ -4.2
33 | A19G A30G C38U C85G A89U U130G | ≤ -4.2
34 | A19G U109G C118G U144A | -3.72
35 | C18U A23U A91U C95G U104C C118A A147U | ≤ -4.2
36 | C18G A52C C93G | ≤ -4.2
37 | C18U U55A C93A G128A G136A | ≤ -4.2
38 | A19G A73G C85A | -1.82
39 | A19G U56A G86A G141U | -1.64
40 | C18G C85U U101C | -0.76
41 | A19C C57U G86A | -0.316
42 | A19G C57G G84U | -2.3
43 | C18U A39C C57U G83A C95U U148C C149A | ≤ -4.2
44 | A19G A41U A66C C93U C99U A115U G140A G141C | ≤ -4.2
45 | A19C A39U G84C C93A U148A | ≤ -4.2
46 | C18U A20U C103A G124A | -3.82
47 | A19C A41C U148C | -1.99
48 | C18U A97G C131G | -3.22

Row | Variant | polymerase ribozyme fitness (log ratio)
49 | A19G G83C | -1.11
50 | A19C C72A A107U G143A | ≤ -4.2
51 | C18G U78A G83A C118U | ≤ -4.2
52 | C18U A40U G143C | -2.98
53 | C18U A37C G74C G81C | ≤ -4.2
54 | C18G C57U | -0.371
55 | A19C A20U C85U G136A | -0.21
56 | A19C G117C | 0.678
57 | A19C A24G C32U C38U G59A C85A G133U U145C | ≤ -4.2
58 | A19C A26C | -1.76
59 | C18G A26U A47U G67C C105G U146A C149G | ≤ -4.2
60 | A19C A52G G92C C96A A147C | -3.53
61 | A19C G34A C57U G86C C96U A98U | -3.16
62 | A19G A21C A30U C38G A41C G48A U77G C93G C114G | ≤ -4.2
63 | C18U A26U C75G G83A A122U G143A | -3.81
64 | A19C A37U G70U U144C | ≤ -4.2
65 | C18G A64C U82G A137G | ≤ -4.2
66 | A19C A22U C35A A106G | -3.28
67 | A19U A20U C85U | -2.59
68 | C18G C38A C93U C105U A113C | -4.17
69 | C18U U31A A60G G84C A89C C105U | -2.16
70 | C18G G59A C75U C93A A107C C118A | ≤ -4.2
71 | C18G A60C G84U C125U | -3.76
72 | A19G A37U U101G | -2.14

Row | Variant | polymerase ribozyme fitness (log ratio)
73 | C18U C85U | -0.241
74 | C18U C85G | -2.3
75 | C18U G65A | -1.77
76 | A19C C57U G94U | -0.554
77 | A19G A91G C95U C125U | -4.01
78 | C18U C54U C93G A119C | ≤ -4.2
79 | A19C A107G | -3.75
80 | C18U A37U U55A G86A | -3.67
81 | C18G C85A U145G A147U | -0.193
82 | A19G C87G G92A U134A | ≤ -4.2
83 | C18U C57G U61A C87U A89U C116U C118G A122G U139A | ≤ -4.2
84 | A19G G83A C85A C96U A97C A119G | ≤ -4.2
85 | A19C A23G A24G U31A C35A A40U G48A C79A G140A | ≤ -4.2
86 | C18G U31A A120G G128U A137G | -4.17
87 | A19C C54U G67U C85A | ≤ -4.2
88 | C18U U56A C85A G124A U135G G136A | ≤ -4.2
89 | C18U U33A A39U A52C C72U G94A C95U C132U | ≤ -4.2
90 | A19C C123G | 0.921
91 | A19C C57A C131A | -2.25
92 | A19C U56A G94A C99U U135A U148A U151G | ≤ -4.2
93 | A19G A73U G94C | -2.39
94 | A19C A24U C93U U135C | -2.84
95 | C18G C85G | -2.28
96 | C18G C85A | -1.49

Row | Variant | polymerase ribozyme fitness (log ratio)
97 | C18U G83C | -1.3
98 | C18U G83A | -0.637
99 | C18U A37C G68A A107U C125A G140C | ≤ -4.2
100 | C18G G83A U145G U151G | ≤ -4.2
101 | C18G U56A | -0.693
102 | A19G A30G G42C G50A C85U U109A A120G | ≤ -4.2
103 | C18G U44G U55G G58C C93A | ≤ -4.2
104 | A19U A20U C85U A142G | -2.89
105 | A19U A20C A26U C85U C118A C125U U134G G143A | ≤ -4.2
106 | C18U G42A A73U C95U A98U C103G | ≤ -4.2
107 | C18G U56G C85U | -0.856
108 | A19G U82G G124A G140C | -3.62
109 | A19G G25U A47C U78C C96A | ≤ -4.2
110 | C18U C51U A89U C96A | -2.24
111 | C18U A22G A49C G86A C131G | -4.14
112 | A19C C27A A47C G58A G59A A91G C123A | ≤ -4.2
113 | A19C C54A U78G C96U G141C | ≤ -4.2
114 | A19C U53A G58A | 0.679
115 | C18G C38A C69G C87U G143U U145A | -3.47
116 | C18U A37G U56A C87G C103U | ≤ -4.2
117 | C18G G71C C76A G88A G94A A113G A119U C129U | ≤ -4.2
118 | C18G A26U C96A | -2.84
119 | C18G A41C C85A G126U | -0.946
120 | A19C A22U G42U C75G C76A G94A A110U G133U G143U U146G | ≤ -4.2

Row | Variant | polymerase ribozyme fitness (log ratio)
121 | C18U A60G C76U C103G G112U | ≤ -4.2
122 | C18G G84U | -1.93
123 | C18G C114G A122G | -3.64
124 | C18U G58C G86A U104C | -1.79
125 | C18G A40U | 0.0147
126 | A19C C38U C96U A142U | -0.812
127 | C18G G94A | -1.09
128 | A19G G42A A66C C85U A106U U148A | ≤ -4.2
129 | C18G C38G G81C C93G | ≤ -4.2
130 | A19G U148G | -3.88
131 | A19G C85G G117A A137G | -2.73
132 | A19C A21C C35U G59U C75U | -1.16
133 | A19C C43U C51G G71A C87G C105U C108U G141C | ≤ -4.2
134 | C18G U44A C96G G133A A137U | -4.04
135 | A19G G50A G67A A91U C93A | ≤ -4.2
136 | C18U A29U A30U G70C C149G | ≤ -4.2
137 | A19C U55A A91G | -2.67
138 | C18G A29C C35A A89U G128A U144G | ≤ -4.2
139 | C18G U56A A73U G83C | -3.86
140 | C18G C57A U134G U145A | -3.18
141 | A19G A20G A60G C76A A89U C93A | ≤ -4.2
142 | A19C U109G | -0.641
143 | C18U C85U C105U | 0.286
144 | C18U C38U U55C A97U A120C | -1.43

Row | Variant | polymerase ribozyme fitness (log ratio)
145 | A19C G62C C72A C87A C131U U135A | ≤ -4.2
146 | C18U A40C A52G G86U U90C U135G | ≤ -4.2
147 | A19U A20U C35U G59C U77C C118U C123U G141A U151G | ≤ -4.2
148 | C18U A21C U55A | -0.649
149 | A19C A24G G94U C95G | ≤ -4.2
150 | C18U A22U C43U C95U U101G G136A A138U | ≤ -4.2
151 | A19C C54A C96U A122G G133C | -2.39
152 | A19G G59U G84U C105G | -3.78
153 | C18U A60G U82A G141C | -0.334
154 | A19G U44C U56A C57U C85U C95G | ≤ -4.2
155 | A19G C35U U53G C54A G71A U145C | -2.47
156 | C18G U45C C96U C116A U130C | ≤ -4.2
157 | A19G C54G C96G C149U | -3.72
158 | A19C G62U C95U C96A | -2.36
159 | C18U C51U U53A G83A | -3.04
160 | A19C U31A C38A G80A A98U | -0.863
161 | C18U A91G | -3.63
162 | A19G A28G A60G G86C A107G C118U G141U | ≤ -4.2
163 | A19G C32A G46C C54U G59C A106U G128C | ≤ -4.2
164 | C18G G46A G74C U77A U135C | ≤ -4.2
165 | C18U C87G | ≤ -4.2
166 | C18U C132U U135A | -2.33
167 | C18U A40C C93A | -2.24

Source: the RNAGym collection of RNA variant scans (doi:10.1073/pnas.2313332121)
